{"source": "paper PMC7948407", "about": "(2020)", "binders": {"B1": {"name": "Cysteine synthase (HiCS) (protein)", "chain": "MAIYADNSYSIGNTPLVRLKHFGHNGNVVVKIEGRNPSYSVKCRIGANMVWQAEKDGTLTKGKEIVDATSGNTGIALAYVAAARGYKITLTMPETMSLERKRLLCGLGVNLVLTEGAKGMKGAIAKAEEIVASDPSRYVMLKQFENPANPQIHRETTGPEIWKDTDGKVDVVVAGVGTGGSITGISRAIKLDFGKQITSVAVEPVESPVISQTLAGEEVKPGPHKIQGIGAGFIPKNLDLSIIDRVETVDSDTALATARRLMAEEGILAGISSGAAVAAADRLAKLPEFADKLIVVILPSASERYLSTALFEGIEG"}, "B2": {"name": "Cysteine synthase (StCS) (protein)", "chain": "SKIYEDNSLTIGHTPLVRLNRIGNGRILAKVESRNPSFSVKCRIGANMIWDAEKRGVLKPGVELVEPTSGNTGIALAYVAAARGYKLTLTMPETMSIERRKLLKALGANLVLTEGAKGMKGAIQKAEEIVASDPQKYLLLQQFSNPANPEIHEKTTGPEIWEDTDGQVDVFISGVGTGGTLTGVTRYIKGTKGKTDLITVAVEPTDSPVIAQALAGEEIKPGPHKIQGIGAGFIPGNLDLKLIDKVVGITNEEAISTARRLMEEEGILAGISSGAAVAAALKLQEDESFTNKNIVVILPSSGERYLSTALFADLFTEKELQQ"}}, "key": {"[1]": {"target": "T1, SAT C-terminal C10 peptide C-terminal 10 residues (Haemophilus influenzae, UniProt P43886)", "T1 chain": "GIDDGMNLNI", "test": "PLP fluorescence titration"}, "[2]": {"target": "T2, SAT C-terminal C10 peptide C-terminal 10 residues (Salmonella typhimurium, UniProt P29847)", "T2 chain": "HHTFEYGDGI", "test": "PLP fluorescence titration"}}, "data": [{"binder": "B1", "values": [{"measurement": "Kd", "setting": "[1]", "value": 3.4, "unit": "µM"}]}, {"binder": "B2", "values": [{"measurement": "Kd", "setting": "[2]", "value": 0.29, "unit": "µM"}]}]}
